# According to PMC6697681, “The predominance of nucleotidyl activation in bacterial phosphonate biosynthesis” (Nature Communications, 2019):
# Experiments:
# [1] = test system: C[N+](C)(C)CCOP(=O)([O-])O; experiment: purified protein; settings: saturating CTP (4 mM), 7 mM MgCl2, room temperature; fit with substrate inhibition
# NCCP(=O)(O)O = experiment: purified protein; settings: saturating CTP (4 mM), 7 mM MgCl2, room temperature
Substance,Km [1] [µM],kcat [1] [s⁻¹],Km (NCCP(=O)(O)O) [µM],kcat (NCCP(=O)(O)O) [s⁻¹],kcat/Km [1] [M⁻¹ s⁻¹]
Spn-LicC (Streptococcus pneumoniae R6),2.36 ± 0.65,1.06 ± 0.04,318 ± 129,0.723 ± 0.054,–
Ari-PntC (Ari1348) (Lancefieldella rimae ATCC 49626),1000 ± 800,0.7 ± 0.3,12 ± 1,–,720
